Reference: patent US20260001928A1 (CORTERIA PHARMACEUTICALS, priority 2022, published 2026)
*1 amine or outer side, *2 acyl side, *3 side chain or, on linkers, in order; H or OH if unused. Where no end group is shown, it is not given here. Side-chain parts run from the residue outwards. [ ]: non-standard residue; d: D form. The star is where a group is joined. C18 diacid = O=C(O)CCCCCCCCCCCCCCCCC(=O)*; γGlu = O=C(O)[C@H](CCC(=O)[*:2])N[*:1]; AEEA = NCCOCCOCC(=O)O; Aib = CC(C)(N)C(=O)O; Butyryl = CCCC(=O)*

T1: CRF1R receptor (UniProt P34998 24-415, limits assumed)
T1 sequence (looked up): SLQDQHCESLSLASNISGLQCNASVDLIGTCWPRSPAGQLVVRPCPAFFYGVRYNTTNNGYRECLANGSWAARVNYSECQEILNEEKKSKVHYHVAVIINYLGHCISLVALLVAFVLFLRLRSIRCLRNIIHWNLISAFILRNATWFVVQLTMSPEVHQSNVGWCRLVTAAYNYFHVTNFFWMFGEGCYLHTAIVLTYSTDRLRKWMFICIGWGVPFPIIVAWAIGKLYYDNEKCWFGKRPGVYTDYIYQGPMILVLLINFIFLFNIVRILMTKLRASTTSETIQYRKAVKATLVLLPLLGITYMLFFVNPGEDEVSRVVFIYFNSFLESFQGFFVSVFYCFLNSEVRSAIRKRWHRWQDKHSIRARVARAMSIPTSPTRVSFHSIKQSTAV

B1: SEQ ID NO 25 (peptide)
peptide: IVLSLDVPIKLK([AEEA-AEEA-γGlu-γGlu-C18 diacid])Q[Aib]LLKQERQKKQREQAEKN[Aib]QILEQV-NH2
modifications: N-terminus assumed
SMILES: CC[C@H](C)[C@H](N)C(=O)N[C@H](C(=O)N[C@@H](CC(C)C)C(=O)N[C@@H](CO)C(=O)N[C@@H](CC(C)C)C(=O)N[C@@H](CC(=O)O)C(=O)N[C@H](C(=O)N1CCC[C@H]1C(=O)N[C@H](C(=O)N[C@@H](CCCCN)C(=O)N[C@@H](CC(C)C)C(=O)N[C@@H](CCCCNC(=O)COCCOCCNC(=O)COCCOCCNC(=O)CC[C@H](NC(=O)CC[C@H](NC(=O)CCCCCCCCCCCCCCCCC(=O)O)C(=O)O)C(=O)O)C(=O)N[C@@H](CCC(N)=O)C(=O)NC(C)(C)C(=O)N[C@@H](CC(C)C)C(=O)N[C@@H](CC(C)C)C(=O)N[C@@H](CCCCN)C(=O)N[C@@H](CCC(N)=O)C(=O)N[C@@H](CCC(=O)O)C(=O)N[C@@H](CCCNC(=N)N)C(=O)N[C@@H](CCC(N)=O)C(=O)N[C@@H](CCCCN)C(=O)N[C@@H](CCCCN)C(=O)N[C@@H](CCC(N)=O)C(=O)N[C@@H](CCCNC(=N)N)C(=O)N[C@@H](CCC(=O)O)C(=O)N[C@@H](CCC(N)=O)C(=O)N[C@@H](C)C(=O)N[C@@H](CCC(=O)O)C(=O)N[C@@H](CCCCN)C(=O)N[C@@H](CC(N)=O)C(=O)NC(C)(C)C(=O)N[C@@H](CCC(N)=O)C(=O)N[C@H](C(=O)N[C@@H](CC(C)C)C(=O)N[C@@H](CCC(=O)O)C(=O)N[C@@H](CCC(N)=O)C(=O)N[C@H](C(N)=O)C(C)C)[C@@H](C)CC)[C@@H](C)CC)C(C)C)C(C)C
B2: SEQ ID NO 26 (peptide)
peptide: Ac-IVLSLDVPIKLK([AEEA-AEEA-γGlu-γGlu-C18 diacid])Q[Aib]LLKQERQKKQREQAEKN[Aib]QILEQV-NH2
SMILES: CC[C@H](C)[C@H](NC(C)=O)C(=O)N[C@H](C(=O)N[C@@H](CC(C)C)C(=O)N[C@@H](CO)C(=O)N[C@@H](CC(C)C)C(=O)N[C@@H](CC(=O)O)C(=O)N[C@H](C(=O)N1CCC[C@H]1C(=O)N[C@H](C(=O)N[C@@H](CCCCN)C(=O)N[C@@H](CC(C)C)C(=O)N[C@@H](CCCCNC(=O)COCCOCCNC(=O)COCCOCCNC(=O)CC[C@H](NC(=O)CC[C@H](NC(=O)CCCCCCCCCCCCCCCCC(=O)O)C(=O)O)C(=O)O)C(=O)N[C@@H](CCC(N)=O)C(=O)NC(C)(C)C(=O)N[C@@H](CC(C)C)C(=O)N[C@@H](CC(C)C)C(=O)N[C@@H](CCCCN)C(=O)N[C@@H](CCC(N)=O)C(=O)N[C@@H](CCC(=O)O)C(=O)N[C@@H](CCCNC(=N)N)C(=O)N[C@@H](CCC(N)=O)C(=O)N[C@@H](CCCCN)C(=O)N[C@@H](CCCCN)C(=O)N[C@@H](CCC(N)=O)C(=O)N[C@@H](CCCNC(=N)N)C(=O)N[C@@H](CCC(=O)O)C(=O)N[C@@H](CCC(N)=O)C(=O)N[C@@H](C)C(=O)N[C@@H](CCC(=O)O)C(=O)N[C@@H](CCCCN)C(=O)N[C@@H](CC(N)=O)C(=O)NC(C)(C)C(=O)N[C@@H](CCC(N)=O)C(=O)N[C@H](C(=O)N[C@@H](CC(C)C)C(=O)N[C@@H](CCC(=O)O)C(=O)N[C@@H](CCC(N)=O)C(=O)N[C@H](C(N)=O)C(C)C)[C@@H](C)CC)[C@@H](C)CC)C(C)C)C(C)C
B3: SEQ ID NO 97 (peptide)
peptide: Ac-IVLSLDVPIKLK([AEEA-AEEA-γGlu-C18 diacid])KILLEQEKQKKQREQAETN[Aib]QILAQV-NH2
SMILES: CC[C@H](C)[C@H](NC(C)=O)C(=O)N[C@H](C(=O)N[C@@H](CC(C)C)C(=O)N[C@@H](CO)C(=O)N[C@@H](CC(C)C)C(=O)N[C@@H](CC(=O)O)C(=O)N[C@H](C(=O)N1CCC[C@H]1C(=O)N[C@H](C(=O)N[C@@H](CCCCN)C(=O)N[C@@H](CC(C)C)C(=O)N[C@@H](CCCCNC(=O)COCCOCCNC(=O)COCCOCCNC(=O)CC[C@H](NC(=O)CCCCCCCCCCCCCCCCC(=O)O)C(=O)O)C(=O)N[C@@H](CCCCN)C(=O)N[C@H](C(=O)N[C@@H](CC(C)C)C(=O)N[C@@H](CC(C)C)C(=O)N[C@@H](CCC(=O)O)C(=O)N[C@@H](CCC(N)=O)C(=O)N[C@@H](CCC(=O)O)C(=O)N[C@@H](CCCCN)C(=O)N[C@@H](CCC(N)=O)C(=O)N[C@@H](CCCCN)C(=O)N[C@@H](CCCCN)C(=O)N[C@@H](CCC(N)=O)C(=O)N[C@@H](CCCNC(=N)N)C(=O)N[C@@H](CCC(=O)O)C(=O)N[C@@H](CCC(N)=O)C(=O)N[C@@H](C)C(=O)N[C@@H](CCC(=O)O)C(=O)N[C@H](C(=O)N[C@@H](CC(N)=O)C(=O)NC(C)(C)C(=O)N[C@@H](CCC(N)=O)C(=O)N[C@H](C(=O)N[C@@H](CC(C)C)C(=O)N[C@@H](C)C(=O)N[C@@H](CCC(N)=O)C(=O)N[C@H](C(N)=O)C(C)C)[C@@H](C)CC)[C@@H](C)O)[C@@H](C)CC)[C@@H](C)CC)C(C)C)C(C)C
B4: SEQ ID NO 95 (peptide)
peptide: Butyryl-VLSLDVPIKLK([AEEA-AEEA-γGlu-C18 diacid])KILLEQEKQKKQREQAETNKQILAQV-NH2
SMILES: CCCC(=O)N[C@H](C(=O)N[C@@H](CC(C)C)C(=O)N[C@@H](CO)C(=O)N[C@@H](CC(C)C)C(=O)N[C@@H](CC(=O)O)C(=O)N[C@H](C(=O)N1CCC[C@H]1C(=O)N[C@H](C(=O)N[C@@H](CCCCN)C(=O)N[C@@H](CC(C)C)C(=O)N[C@@H](CCCCNC(=O)COCCOCCNC(=O)COCCOCCNC(=O)CC[C@H](NC(=O)CCCCCCCCCCCCCCCCC(=O)O)C(=O)O)C(=O)N[C@@H](CCCCN)C(=O)N[C@H](C(=O)N[C@@H](CC(C)C)C(=O)N[C@@H](CC(C)C)C(=O)N[C@@H](CCC(=O)O)C(=O)N[C@@H](CCC(N)=O)C(=O)N[C@@H](CCC(=O)O)C(=O)N[C@@H](CCCCN)C(=O)N[C@@H](CCC(N)=O)C(=O)N[C@@H](CCCCN)C(=O)N[C@@H](CCCCN)C(=O)N[C@@H](CCC(N)=O)C(=O)N[C@@H](CCCNC(=N)N)C(=O)N[C@@H](CCC(=O)O)C(=O)N[C@@H](CCC(N)=O)C(=O)N[C@@H](C)C(=O)N[C@@H](CCC(=O)O)C(=O)N[C@H](C(=O)N[C@@H](CC(N)=O)C(=O)N[C@@H](CCCCN)C(=O)N[C@@H](CCC(N)=O)C(=O)N[C@H](C(=O)N[C@@H](CC(C)C)C(=O)N[C@@H](C)C(=O)N[C@@H](CCC(N)=O)C(=O)N[C@H](C(N)=O)C(C)C)[C@@H](C)CC)[C@@H](C)O)[C@@H](C)CC)[C@@H](C)CC)C(C)C)C(C)C

These binders were tested against T1, CRF1R receptor (assay: cell-based or functional assay).

EC50 | Emax (% I) | Binder
> 250 nM | 6% | B1
> 250 nM | 1% | B2
– | 0% | B3
– | 5% | B4

These binders were tested against human corticotropin-releasing factor 2a (CRF2a receptor) (human), Q13324 (assay: cell-based or functional assay).
Chain of human corticotropin-releasing factor 2a (CRF2a receptor) (human), Q13324 (Q13324 20-411): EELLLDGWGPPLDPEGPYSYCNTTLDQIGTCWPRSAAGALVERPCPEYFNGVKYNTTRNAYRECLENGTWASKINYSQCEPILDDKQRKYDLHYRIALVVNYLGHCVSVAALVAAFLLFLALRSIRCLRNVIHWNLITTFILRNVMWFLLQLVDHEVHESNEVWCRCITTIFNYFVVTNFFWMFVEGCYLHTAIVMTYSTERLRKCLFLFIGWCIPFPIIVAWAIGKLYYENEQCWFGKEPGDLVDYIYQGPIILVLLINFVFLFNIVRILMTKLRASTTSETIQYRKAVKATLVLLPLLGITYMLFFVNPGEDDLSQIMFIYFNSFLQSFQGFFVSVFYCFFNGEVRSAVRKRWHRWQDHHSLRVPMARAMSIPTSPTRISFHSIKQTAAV

EC50 [nM] (cAMP) | Binder
5.02 nM | B1
18.6 nM | B2
3.17 nM | B3
0.76 nM | B4
